Biological target: CDK complexes from A. thaliana purified on p13suc1 sepharose beads
Experiment: cell-based or functional assay

B1: Purified recombinant FL66 protein (E. coli, FL66pET21d), starting at methionine 11 (protein)
chain: MEVSKATAPSPGVRTRAAKTLALKRLNSSAADSALPNDSSCYLQLRSRRLEKPSSLIEPKQPPRVHRSGIKESGSRSRVDSVNSVPVAQSSNEDECFDNFVSVQVSCGENSLGFESRHSTRESTPCNFVEDMEIMVTPGSSTRSMCRATKEYTREQDNVIPTTSEMEEFFAYAEQQQQRLFMEKYNFDIVNDIPLSGRYEWVQVKP
  CDK activity measured using histone H1 as substrate, compared to a control sample without FL66; 10 nM FL66 (% of the control): 82
  CDK activity measured using histone H1 as substrate, compared to a control sample without FL66; 100 nM FL66 (% of the control): 74
  CDK activity measured using histone H1 as substrate, compared to a control sample without FL66; 1 uM FL66 (% of the control): 56
  CDK activity measured using histone H1 as substrate, compared to a control sample without FL66; 10 uM FL66 (% of the control): 12
  kinase activity of the CDK fraction bound to p13suc1 beads, FL66 added prior to washing of the beads; 0.1 uM FL66 (% of the control): 81
  kinase activity of the CDK fraction bound to p13suc1 beads, FL66 added prior to washing of the beads; 10 uM FL66 (% of the control): 35

Source: patent publication US7265267
